Source: the Human Domainome abundance scans (Beltran et al. 2025)

B1: Transcription elongation regulator 1-like protein, residues 448 to 504; numbered along this chain, Q5VWI1 (parent)
chain: LPLEERVTHFRDMLLERGVSAFSTWEKELHKIVFDPRYLLLNSEERKQIFEQFVKTR
B2: Nanos homolog 2, residues 63 to 115; numbered along this chain, P60321 (parent)
chain: CNFCKHNGESRHVYSSHQLKTPDGVVVCPILRHYVCPVCGATGDQAHTLKYCP

Variants of: B1
Test: abundance fitness (aPCA) (normalised: wild type 0, dead -1); higher = more abundant; growth selection in yeast, the domain comes from the species named
Conditions: Homo sapiens

Abundance fitness: each site, then its substitutions
I49: L 0.035; R -0.782; M -0.599; D 0.515; G -0.643; P -0.886; A -0.517; V 0.082; Y 0.129; T 0.117; C -0.261; W -0.743; S -0.669; Q 0.437; E -0.3
T56: D 0.635; R -0.456; I -0.034; P 0.109; V -0.477; C -0.214; S -0.017; A 0.035; Q 0.022; W -0.482; K -0.078; G -0.303; L -0.311; E 0.336; N 0.05
F50: G -0.759; L -0.413; Y 0.082; W -0.17; A -0.887; N 0.347; R -0.714; Q -0.866; D -0.624; E -0.69; K -0.835; V -0.833; T -0.924; M -0.605
F53: E -0.964; V -0.797; A -0.949; T -0.964; G -0.368; S -0.718; R -0.837; Y 0.15; H -0.466; C -0.828; W -0.05; L -0.747
Q52: C -0.402; L -0.435; H -0.426; S -0.151; K -0.238; D 0.193; P -0.618; Y -0.804; V -0.526; N -0.506; F -0.922; W -0.621; M -0.428; I -0.592; E 0.114; A -0.395; T -0.33
E51: C -0.96; R -0.594; N -0.147; L -0.522; Y -0.375; W -0.766; T -0.281; P -0.929; I -0.632; S -0.28; D -0.04; F -0.288; Q -0.255; H -0.077; M -0.413; G -0.618; V -0.669; K -0.278; A 0.047
V54: I -0.199; M -0.505; S -0.222; R -0.348; P -0.811; C -0.303; D -0.32; A -0.451; K -0.396; W -0.624; T -0.093; G -0.632; E -0.821; F -0.082
K55: C -0.382; E 0.209; Y -0.667; M 0.06; Q -0.19; L -0.124; D -0.514; N -0.267; G -0.278; P -1.19; T 0.212; A -0.266; W -0.543; S -0.04; H -0.218

Variants of: B2
Test: as above
Conditions: Homo sapiens

Abundance fitness, by site and new letter:
C4: A -1.06; F -0.423; E -0.867; G -0.802; H -0.688
C1: Y -0.762; L -0.745; F -0.347; W -0.941; G -0.554; S -0.337
N2: C -0.701; P -0.812; D -0.359; I -0.157; L -0.864; V -0.819; R -0.768; F -0.324; W -0.759; K -0.255; T -0.408; A -0.823; E -0.663; H -0.647; M -0.861; Y -0.254; G -0.484
F3: Y -0.117; E -1.22; I -0.399; V -1.01; Q -0.933; D -0.701; P -1.3; G -1.2; M -1.06; K -1.44; H -0.502; R -0.848; N -0.877; T -0.988; L -0.576; W -0.709; S -0.623; C -0.632
